The record followed here is article PMC6545562, “Slx5/Slx8‐dependent ubiquitin hotspots on chromatin contribute to stress tolerance” (The EMBO Journal, 2019).

The experiment deals with T1, 6His-Slx5, recombinant (S. cerevisiae, UniProt P32828 1-619).
T1 construct: Slx5, S. cerevisiae; Host and purification are in the Appendix Supplementary Methods; source: recombinant
T1 sequence (looked up): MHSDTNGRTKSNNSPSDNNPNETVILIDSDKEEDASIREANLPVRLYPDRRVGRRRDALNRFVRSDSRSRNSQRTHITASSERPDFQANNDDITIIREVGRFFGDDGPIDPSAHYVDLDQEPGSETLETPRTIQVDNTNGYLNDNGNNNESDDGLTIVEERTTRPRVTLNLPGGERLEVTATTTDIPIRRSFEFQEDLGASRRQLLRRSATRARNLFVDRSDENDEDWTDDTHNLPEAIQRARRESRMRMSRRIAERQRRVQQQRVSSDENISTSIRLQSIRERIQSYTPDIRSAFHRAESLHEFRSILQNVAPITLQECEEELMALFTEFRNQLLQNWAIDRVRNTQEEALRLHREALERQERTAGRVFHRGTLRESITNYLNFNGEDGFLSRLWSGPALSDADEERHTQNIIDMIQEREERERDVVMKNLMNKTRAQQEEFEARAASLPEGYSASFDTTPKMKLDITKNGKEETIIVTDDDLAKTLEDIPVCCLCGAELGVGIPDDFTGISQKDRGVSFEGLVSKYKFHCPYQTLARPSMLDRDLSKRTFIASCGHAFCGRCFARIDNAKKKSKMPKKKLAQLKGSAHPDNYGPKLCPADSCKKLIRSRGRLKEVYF
Nature of the experiment: pull-down; GST pull-down: recombinant purified GST or GST-Euc1 used to co-precipitate recombinant 6His-Slx5. Particulars: both partners purified.

B1: GST-Euc1, recombinant (natural protein, S. cerevisiae, UniProt Q04461 1-462, looked up)
chain: MPAREYNYVEGFGGYGSLDDDDSDRDSERRNHDLGQRTITTSPTGVSRHAALNRYMIPGRINPLFRPTDAAQPPIVSTSTSASATEPTNRIGPGRIKETPETNFNAFLIAQLTRMEEQNANLKEEISLMKKEQELFFLENQKKLEKGFKDINKYVEDVSAMKEVFKEVVGIMTGERIRFIDHTGENVTPQEAARVGNPSTSTQAHQSQSRSTNWQEYSMHASILAGDPRIKPEPGLSDFENGEYDGNESDENATTRNLPLNNPDSVSNADDSNNQLDGTGNENDIRNRRGCVGTSYKLNRAIQNVTDAAREYFEGLPGQPSVLSLERRYGSTWRRSAKERTLFTKRMTIIKRIIDIKDDPSKYGLSLPENKISRNQAIKVVENIRLGNNTFKGHHCRLSMSQLYEYFSKKMDKLEDYSLTLKRRGKPRRIFLLEEREARLSLQQPHSIPNSSTGTPEHDQDT
notes: Euc1 (Ymr111c), S. cerevisiae; Host and purification are in the Appendix Supplementary Methods; also called recombinant, non‐SUMOylated Euc1; source: recombinant, purified
B1: the binding result is listed as “binds”.
